In assay [1] the target is Fuk85HA44-309 (truncated HA on 293T cells) (Influenza A virus H3N2, …, UniProt P12589 44-309). Description: flow cytometry on 293T cells expressing truncated HA. Background: Flow cytometry measures light scatter and fluorescence of single cells or particles in a stream.
The target in assay [2] is Fuk85HA39-319 (truncated HA on 293T cells) (Influenza A virus H3N2, …, UniProt P12589 39-319). The assay is described as above.

B1: F005-126 antibody (IgG) (antibody, V domains shown)
VH: QVQLVQSGAEVKKPGASVTVSCQVSGYTLTSYGLSWVRQAPGQGLEWVGWINTYDGQTKYVKKFQGRVTMTTHTGTNTAYMEMKSLRSDDTAVYYCARVEGVRGVMGFHYYPMDVWGQGTMVTVSS
VL: QSVLTQPPSVSGAPGQRVTISCTGSSSNIGAGYAVHWYQQLPGTAPKLLISGNSNRPSGVPDRFSGSKSGTSASLAITGLQAEDEADYYCQSYDSSLSGSVFGGGTKLTVLG
notes: also called F5126; F05126
B1: the values for the binding result in assay [1] and in assay [2] were “no binding” and “binds”, respectively.

Source of the values: patent publication US20140086927A1 (FUJITA HEALTH UNIVERSITY, published 2014).
